Assay results reported in patent US20080311132A1.

What was measured:
[1] = target: Factor B (UniProt P00751); assay: SPR (Biacore), CVF on the chip, factor B in solution, with Mg
[2] = target: Factor B (UniProt P00751); assay: SPR (Biacore), CVF on the chip, factor B in solution, in EDTA
[3] = target: Bb, the activated form of factor B (UniProt P00751); assay: SPR (Biacore) at 25° C., half-life of the C3 convertase formed on CVF on the chip
[4] = target: Factor B (UniProt P00751); assay: SPR (Biacore), CVF on the chip, factor B in solution, with factor D and Mg
[5] = target: C5 (UniProt P01031); assay: SPR (Biacore), CVF on the chip, C5 in solution
[6] = target: Factor H (UniProt P08603); assay: SPR (Biacore), CVF on the chip, factor H in solution
Chain of Factor H (P08603 19-1231 limits assumed): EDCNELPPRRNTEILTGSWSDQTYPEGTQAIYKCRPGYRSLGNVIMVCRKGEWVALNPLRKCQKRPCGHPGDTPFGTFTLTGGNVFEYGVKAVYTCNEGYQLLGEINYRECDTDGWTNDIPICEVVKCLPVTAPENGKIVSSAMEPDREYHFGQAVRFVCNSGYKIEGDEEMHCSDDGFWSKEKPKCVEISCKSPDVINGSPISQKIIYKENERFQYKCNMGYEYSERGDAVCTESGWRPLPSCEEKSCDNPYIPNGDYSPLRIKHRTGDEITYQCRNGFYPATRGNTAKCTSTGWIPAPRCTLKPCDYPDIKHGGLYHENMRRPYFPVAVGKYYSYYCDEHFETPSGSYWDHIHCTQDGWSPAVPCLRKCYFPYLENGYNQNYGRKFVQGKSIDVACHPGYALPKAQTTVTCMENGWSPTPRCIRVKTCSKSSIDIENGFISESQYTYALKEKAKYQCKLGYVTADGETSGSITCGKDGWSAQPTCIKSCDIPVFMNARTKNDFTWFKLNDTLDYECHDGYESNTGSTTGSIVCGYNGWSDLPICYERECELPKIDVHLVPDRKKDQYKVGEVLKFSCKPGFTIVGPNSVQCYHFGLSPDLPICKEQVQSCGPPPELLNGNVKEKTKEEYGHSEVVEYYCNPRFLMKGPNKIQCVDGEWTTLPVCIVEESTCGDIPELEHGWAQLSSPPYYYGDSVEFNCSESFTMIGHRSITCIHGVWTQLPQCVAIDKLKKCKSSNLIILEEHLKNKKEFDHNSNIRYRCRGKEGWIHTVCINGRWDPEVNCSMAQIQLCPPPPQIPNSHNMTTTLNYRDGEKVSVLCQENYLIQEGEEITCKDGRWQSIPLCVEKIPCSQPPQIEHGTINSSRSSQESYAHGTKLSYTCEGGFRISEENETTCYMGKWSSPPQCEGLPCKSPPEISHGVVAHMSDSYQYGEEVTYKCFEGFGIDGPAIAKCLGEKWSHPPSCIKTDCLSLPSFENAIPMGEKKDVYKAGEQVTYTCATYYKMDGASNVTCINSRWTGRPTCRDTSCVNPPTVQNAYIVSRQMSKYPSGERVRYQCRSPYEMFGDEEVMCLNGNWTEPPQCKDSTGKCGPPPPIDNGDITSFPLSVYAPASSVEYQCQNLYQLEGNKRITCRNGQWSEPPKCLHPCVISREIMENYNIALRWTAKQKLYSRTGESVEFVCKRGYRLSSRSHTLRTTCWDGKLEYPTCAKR

Chain of Cobra Venom Factor (Q91132 23-649 limits assumed): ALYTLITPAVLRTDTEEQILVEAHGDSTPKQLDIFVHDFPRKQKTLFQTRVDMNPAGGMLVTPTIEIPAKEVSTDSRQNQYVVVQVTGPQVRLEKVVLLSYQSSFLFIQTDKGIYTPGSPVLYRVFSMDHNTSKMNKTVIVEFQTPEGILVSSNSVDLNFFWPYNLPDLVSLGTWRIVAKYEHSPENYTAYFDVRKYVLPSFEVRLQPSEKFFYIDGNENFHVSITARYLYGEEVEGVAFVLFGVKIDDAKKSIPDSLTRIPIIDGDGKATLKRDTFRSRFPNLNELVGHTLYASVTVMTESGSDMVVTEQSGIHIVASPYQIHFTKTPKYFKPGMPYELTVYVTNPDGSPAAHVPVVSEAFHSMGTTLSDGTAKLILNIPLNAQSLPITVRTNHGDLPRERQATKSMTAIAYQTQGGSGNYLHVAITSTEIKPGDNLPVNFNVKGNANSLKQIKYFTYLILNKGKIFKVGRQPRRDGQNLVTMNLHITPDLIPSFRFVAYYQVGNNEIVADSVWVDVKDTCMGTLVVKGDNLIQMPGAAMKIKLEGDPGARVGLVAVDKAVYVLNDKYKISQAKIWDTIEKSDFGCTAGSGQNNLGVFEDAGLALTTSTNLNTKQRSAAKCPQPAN
Chain of Cobra Venom Factor (Q91132 733-984 limits assumed): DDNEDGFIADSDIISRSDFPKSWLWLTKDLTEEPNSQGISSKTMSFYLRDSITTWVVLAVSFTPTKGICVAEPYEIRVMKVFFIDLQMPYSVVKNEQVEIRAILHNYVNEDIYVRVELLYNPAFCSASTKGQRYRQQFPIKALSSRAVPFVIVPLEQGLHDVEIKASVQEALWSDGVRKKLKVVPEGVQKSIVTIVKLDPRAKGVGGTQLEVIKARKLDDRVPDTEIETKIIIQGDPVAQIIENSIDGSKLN
Chain of Cobra Venom Factor (Q91132 1264-1642 limits assumed): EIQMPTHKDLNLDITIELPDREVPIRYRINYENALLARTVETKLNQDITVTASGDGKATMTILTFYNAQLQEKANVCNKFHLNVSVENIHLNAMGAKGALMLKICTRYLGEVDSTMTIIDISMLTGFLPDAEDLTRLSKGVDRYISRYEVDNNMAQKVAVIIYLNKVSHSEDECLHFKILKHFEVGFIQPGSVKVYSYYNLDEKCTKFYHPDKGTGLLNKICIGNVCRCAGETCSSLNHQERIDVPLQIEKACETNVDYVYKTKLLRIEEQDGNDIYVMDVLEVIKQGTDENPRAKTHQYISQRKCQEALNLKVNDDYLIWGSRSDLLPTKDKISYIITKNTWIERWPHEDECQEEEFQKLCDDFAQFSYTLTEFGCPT
Chain of Factor B (P00751 26-764 limits assumed): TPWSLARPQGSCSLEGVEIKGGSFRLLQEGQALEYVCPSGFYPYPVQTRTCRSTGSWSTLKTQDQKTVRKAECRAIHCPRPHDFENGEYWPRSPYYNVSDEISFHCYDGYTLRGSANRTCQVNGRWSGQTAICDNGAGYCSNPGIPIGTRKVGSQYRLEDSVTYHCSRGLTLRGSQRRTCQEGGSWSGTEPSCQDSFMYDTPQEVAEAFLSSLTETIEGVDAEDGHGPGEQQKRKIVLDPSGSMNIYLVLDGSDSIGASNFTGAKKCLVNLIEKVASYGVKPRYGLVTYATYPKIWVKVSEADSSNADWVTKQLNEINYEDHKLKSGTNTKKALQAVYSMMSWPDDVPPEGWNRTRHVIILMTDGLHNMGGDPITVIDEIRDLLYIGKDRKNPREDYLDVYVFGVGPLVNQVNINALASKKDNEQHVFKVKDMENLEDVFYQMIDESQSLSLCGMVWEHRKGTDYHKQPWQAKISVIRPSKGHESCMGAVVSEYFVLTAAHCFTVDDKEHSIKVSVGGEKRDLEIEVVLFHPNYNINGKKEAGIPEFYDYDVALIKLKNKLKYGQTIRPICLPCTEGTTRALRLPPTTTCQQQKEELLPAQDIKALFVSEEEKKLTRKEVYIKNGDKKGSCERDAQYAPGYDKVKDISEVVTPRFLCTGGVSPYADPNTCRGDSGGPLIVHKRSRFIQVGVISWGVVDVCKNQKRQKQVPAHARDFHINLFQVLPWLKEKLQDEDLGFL
Chain of C5 (P01031 19-673 limits assumed, form in doubt, chain 1 of 2): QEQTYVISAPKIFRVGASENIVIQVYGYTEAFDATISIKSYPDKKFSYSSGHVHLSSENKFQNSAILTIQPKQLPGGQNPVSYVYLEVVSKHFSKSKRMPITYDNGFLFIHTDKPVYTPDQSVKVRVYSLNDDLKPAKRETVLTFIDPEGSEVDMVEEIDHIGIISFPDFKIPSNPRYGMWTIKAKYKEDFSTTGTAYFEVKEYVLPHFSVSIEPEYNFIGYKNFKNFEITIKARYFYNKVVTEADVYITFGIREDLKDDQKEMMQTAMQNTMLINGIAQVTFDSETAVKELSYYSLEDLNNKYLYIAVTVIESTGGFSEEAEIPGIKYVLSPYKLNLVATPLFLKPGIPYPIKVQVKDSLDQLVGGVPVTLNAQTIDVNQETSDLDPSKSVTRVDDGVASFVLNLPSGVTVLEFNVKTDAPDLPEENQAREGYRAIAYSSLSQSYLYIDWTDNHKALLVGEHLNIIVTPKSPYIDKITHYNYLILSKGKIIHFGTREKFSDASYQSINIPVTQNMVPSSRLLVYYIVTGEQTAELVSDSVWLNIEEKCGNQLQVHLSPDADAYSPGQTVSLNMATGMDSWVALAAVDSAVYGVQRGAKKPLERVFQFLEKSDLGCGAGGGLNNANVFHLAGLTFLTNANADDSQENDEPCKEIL
Chain of C5 (P01031 678-1676 limits assumed, form in doubt, chain 2 of 2): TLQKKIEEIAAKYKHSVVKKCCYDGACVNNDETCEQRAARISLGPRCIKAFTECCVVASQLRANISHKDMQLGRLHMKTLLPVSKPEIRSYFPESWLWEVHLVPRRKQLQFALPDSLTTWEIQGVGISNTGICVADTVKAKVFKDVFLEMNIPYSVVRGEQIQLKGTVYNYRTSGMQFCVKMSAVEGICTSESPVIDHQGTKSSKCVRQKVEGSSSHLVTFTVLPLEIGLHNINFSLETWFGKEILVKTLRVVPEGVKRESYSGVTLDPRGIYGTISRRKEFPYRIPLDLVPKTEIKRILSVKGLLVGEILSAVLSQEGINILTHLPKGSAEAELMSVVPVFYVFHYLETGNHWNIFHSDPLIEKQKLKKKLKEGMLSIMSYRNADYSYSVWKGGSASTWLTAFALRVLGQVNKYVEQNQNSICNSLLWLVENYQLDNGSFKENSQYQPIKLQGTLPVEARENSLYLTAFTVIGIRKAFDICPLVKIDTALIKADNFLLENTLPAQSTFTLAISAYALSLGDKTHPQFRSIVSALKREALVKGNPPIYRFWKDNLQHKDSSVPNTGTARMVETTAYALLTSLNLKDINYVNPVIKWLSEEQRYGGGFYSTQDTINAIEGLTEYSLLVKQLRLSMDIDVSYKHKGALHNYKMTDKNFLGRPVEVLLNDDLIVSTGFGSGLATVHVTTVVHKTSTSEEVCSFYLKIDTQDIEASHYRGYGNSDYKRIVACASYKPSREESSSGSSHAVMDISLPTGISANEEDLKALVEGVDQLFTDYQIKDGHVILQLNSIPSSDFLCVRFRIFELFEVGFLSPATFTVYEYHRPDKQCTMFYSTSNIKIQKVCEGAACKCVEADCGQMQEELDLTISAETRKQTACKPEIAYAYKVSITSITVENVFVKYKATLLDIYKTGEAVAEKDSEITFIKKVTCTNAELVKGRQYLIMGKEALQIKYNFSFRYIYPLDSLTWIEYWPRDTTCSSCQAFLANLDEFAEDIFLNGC

For “Cobra Venom Factor (from UniProt Q91132 23-649; Q91132 733-984; Q91132 1264-1642)”, the Amount of protein bound (RU) [1] was 298 RU, the Amount of protein bound (RU) [2] was 99 RU and the T½ of C3 convertase [3] was 18.3 h. It also gave an Amount of protein bound (RU) [4] of 370 RU, an Amount of protein bound (RU) [5] of 617 RU and an Amount of protein bound (RU) [6] of -14 RU.
